Assay results: the supplement of paper PMC10567573

B1: KRT15 (parent)
chain: SNFHINVEESVDGQVVSSHKREI

Variants of: B1
Test: protein stability index of a GFP-peptide fusion (GPS, HEK-293T) (PSI 1-6); higher = more stable
Conditions: c terminus: native
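Also: lentivirally expressed fusions sorted by FACS into six bins by GFP to DsRed ratio, PSI derived from sequencing read proportions per bin multiplied by bin number.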

Compared with SNFHINVEESVDGQVVSSHKRGI [E22G], SNFHINVEESVDGQVVSSHKRYI [E22Y] is lower in protein stability index: 5.28 for the first, 4.1 for the second.

Going from SNFHINVEESVDGQVVSSHKRLI [E22L] to SNFHINVEESVDGQVVSSHKRFI [E22F], the protein stability index falls from 4.53 to 4.19.

Going from SNFHINVEESVDGQVVSSHKRII [E22I] to SNFHINVEESVDGQVVSSHKRCI [E22C], the protein stability index rises from 4.12 to 4.59.

First: SNFHINVEESVDGQVVSSHKRRI [E22R]
Second: SNFHINVEESVDGQVVSSHKRKI [E22K]
The protein stability index of the first is lower: 2.87 for the first, 4.82 for the second.

Going from SNFHINVEESVDGQVVSSHKRDI [E22D] to SNFHINVEESVDGQVVSSHKRTI [E22T], the protein stability index falls from 4.97 to 4.46.

Going from SNFHINVEESVDGQVVSSHKRQI [E22Q] to SNFHINVEESVDGQVVSSHKRMI [E22M], the protein stability index falls from 4.37 to 4.05.

Compared with SNFHINVEESVDGQVVSSHKRPI [E22P], SNFHINVEESVDGQVVSSHKRAI [E22A] is lower in protein stability index: 4.74 for the first, 4.63 for the second.

Going from SNFHINVEESVDGQVVSSHKRSI [E22S] to SNFHINVEESVDGQVVSSHKRNI [E22N], the protein stability index rises from 3.52 to 4.82.

Going from SNFHINVEESVDGQVVSSHKRWI [E22W] to SNFHINVEESVDGQVVSSHKRHI [E22H], the protein stability index rises from 3.94 to 4.64.

Going from SNFHINVEESVDGQVVSSHKREY [I23Y] to SNFHINVEESVDGQVVSSHKREG [I23G], the protein stability index falls from 4.55 to 3.55.

Going from SNFHINVEESVDGQVVSSHKREW [I23W] to SNFHINVEESVDGQVVSSHKREE [I23E], the protein stability index falls from 2.45 to 2.44.

Going from SNFHINVEESVDGQVVSSHKRER [I23R] to SNFHINVEESVDGQVVSSHKREF [I23F], the protein stability index rises from 3.09 to 4.74.

Compared with SNFHINVEESVDGQVVSSHKRED [I23D], SNFHINVEESVDGQVVSSHKREV [I23V] is lower in protein stability index: 4.89 for the first, 4.83 for the second.

First: SNFHINVEESVDGQVVSSHKREC [I23C]
Second: SNFHINVEESVDGQVVSSHKRET [I23T]
The protein stability index of the first is higher: 4.94 for the first, 4.32 for the second.

Compared with SNFHINVEESVDGQVVSSHKREN [I23N], SNFHINVEESVDGQVVSSHKREH [I23H] is lower in protein stability index: 4.98 for the first, 4.13 for the second.

Going from SNFHINVEESVDGQVVSSHKREM [I23M] to SNFHINVEESVDGQVVSSHKREQ [I23Q], the protein stability index rises from 2.52 to 4.43.

Compared with SNFHINVEESVDGQVVSSHKREK [I23K], SNFHINVEESVDGQVVSSHKREP [I23P] is lower in protein stability index: 5.16 for the first, 3.83 for the second.

Compared with SNFHINVEESVDGQVVSSHKRES [I23S], SNFHINVEESVDGQVVSSHKREA [I23A] is higher in protein stability index: 3.79 for the first, 4.14 for the second.

First: SNFHINVEESVDGQVVSSHLREI [K20L]
Second: SNFHINVEESVDGQVVSSHTREI [K20T]
The protein stability index of the first is lower: 1.39 for the first, 3.08 for the second.

Going from SNFHINVEESVDGQVVSSHYREI [K20Y] to SNFHINVEESVDGQVVSSHRREI [K20R], the protein stability index rises from 2.18 to 3.06.

Compared with SNFHINVEESVDGQVVSSHVREI [K20V], SNFHINVEESVDGQVVSSHFREI [K20F] is lower in protein stability index: 2.4 for the first, 2.07 for the second.

Going from SNFHINVEESVDGQVVSSHIREI [K20I] to SNFHINVEESVDGQVVSSHQREI [K20Q], the protein stability index rises from 2.45 to 2.77.

First: SNFHINVEESVDGQVVSSHEREI [K20E]
Second: SNFHINVEESVDGQVVSSHWREI [K20W]
The protein stability index of the first is lower: 1.49 for the first, 3.4 for the second.

First: SNFHINVEESVDGQVVSSHDREI [K20D]
Second: SNFHINVEESVDGQVVSSHPREI [K20P]
The protein stability index of the first is higher: 3.86 for the first, 1.94 for the second.

Going from SNFHINVEESVDGQVVSSHGREI [K20G] to SNFHINVEESVDGQVVSSHHREI [K20H], the protein stability index falls from 3.06 to 2.51.

Going from SNFHINVEESVDGQVVSSHAREI [K20A] to SNFHINVEESVDGQVVSSHCREI [K20C], the protein stability index falls from 3.58 to 2.39.

Compared with SNFHINVEESVDGQVVSSHMREI [K20M], SNFHINVEESVDGQVVSSHNREI [K20N] is higher in protein stability index: 3.15 for the first, 5.38 for the second.

Going from SNFHINVEESVDGQEVSSHKREI [V15E] to SNFHINVEESVDGQAVSSHKREI [V15A], the protein stability index falls from 2.23 to 1.71.

Compared with SNFHINVEESVDGQFVSSHKREI [V15F], SNFHINVEESVDGQYVSSHKREI [V15Y] is higher in protein stability index: 1.96 for the first, 2.12 for the second.

Compared with SNFHINVEESVDGQTVSSHKREI [V15T], SNFHINVEESVDGQSVSSHKREI [V15S] is higher in protein stability index: 2.31 for the first, 3.12 for the second.

First: SNFHINVEESVDGQDVSSHKREI [V15D]
Second: SNFHINVEESVDGQCVSSHKREI [V15C]
The protein stability index of the first is higher: 2.82 for the first, 1.48 for the second.

First: SNFHINVEESVDGQQVSSHKREI [V15Q]
Second: SNFHINVEESVDGQIVSSHKREI [V15I]
The protein stability index of the first is higher: 2.78 for the first, 2.11 for the second.

First: SNFHINVEESVDGQGVSSHKREI [V15G]
Second: SNFHINVEESVDGQLVSSHKREI [V15L]
The protein stability index of the first is higher: 2.67 for the first, 1.78 for the second.

Compared with SNFHINVEESVDGQNVSSHKREI [V15N], SNFHINVEESVDGQPVSSHKREI [V15P] is higher in protein stability index: 2.52 for the first, 2.84 for the second.

Compared with SNFHINVEESVDGQHVSSHKREI [V15H], SNFHINVEESVDGQMVSSHKREI [V15M] is higher in protein stability index: 1.83 for the first, 4.02 for the second.

First: SNFHINVEESVDGQVVGSHKREI [S17G]
Second: SNFHINVEESVDGQVVFSHKREI [S17F]
The protein stability index of the first is higher: 2.73 for the first, 2.65 for the second.

First: SNFHINVEESVDGQVVESHKREI [S17E]
Second: SNFHINVEESVDGQVVQSHKREI [S17Q]
The protein stability index of the first is higher: 2.91 for the first, 1.68 for the second.

First: SNFHINVEESVDGQVVPSHKREI [S17P]
Second: SNFHINVEESVDGQVVISHKREI [S17I]
The protein stability index of the first is higher: 1.43 for the first, 1.12 for the second.

First: SNFHINVEESVDGQVVLSHKREI [S17L]
Second: SNFHINVEESVDGQVVDSHKREI [S17D]
The protein stability index of the first is higher: 2.06 for the first, 1.8 for the second.

Compared with SNFHINVEESVDGQVVASHKREI [S17A], SNFHINVEESVDGQVVKSHKREI [S17K] is lower in protein stability index: 2.37 for the first, 1.82 for the second.

Going from SNFHINVEESVDGQVVVSHKREI [S17V] to SNFHINVEESVDGQVVWSHKREI [S17W], the protein stability index rises from 2.42 to 4.29.

Compared with SNFHINVEESVDGQVVHSHKREI [S17H], SNFHINVEESVDGQVVMSHKREI [S17M] is lower in protein stability index: 2.17 for the first, 1.29 for the second.

First: SNFHINVEESVDGQVVRSHKREI [S17R]
Second: SNFHINVEESVDGQVVNSHKREI [S17N]
The protein stability index of the first is lower: 1.7 for the first, 1.91 for the second.

First: SNFHINVEESVDGQVVYSHKREI [S17Y]
Second: SNFHINVEESVDGQVVTSHKREI [S17T]
The protein stability index of the first is lower: 2.27 for the first, 2.5 for the second.

Going from SNFHINVEESVDGQVDSSHKREI [V16D] to SNFHINVEESVDGQVHSSHKREI [V16H], the protein stability index falls from 2.86 to 1.2.

Compared with SNFHINVEESVDGQVTSSHKREI [V16T], SNFHINVEESVDGQVQSSHKREI [V16Q] is lower in protein stability index: 2.99 for the first, 2.62 for the second.

First: SNFHINVEESVDGQVYSSHKREI [V16Y]
Second: SNFHINVEESVDGQVESSHKREI [V16E]
The protein stability index of the first is lower: 2 for the first, 2.85 for the second.

Compared with SNFHINVEESVDGQVKSSHKREI [V16K], SNFHINVEESVDGQVNSSHKREI [V16N] is higher in protein stability index: 2.2 for the first, 2.46 for the second.
